Experimental findings from patent US20110293618A1 (MEDICAL AND BIOLOGICAL LABORATORIES, published 2011) are described below.

In test [1] the target is T1, human CLCP1 (CUB, LCCL-homology, coagulation factor V/VIII homology domains protein), full length, on cells (human, UniProt Q96PD2 67-775).
T1 construct: also called ESDN; DCBLD2
T1 sequence: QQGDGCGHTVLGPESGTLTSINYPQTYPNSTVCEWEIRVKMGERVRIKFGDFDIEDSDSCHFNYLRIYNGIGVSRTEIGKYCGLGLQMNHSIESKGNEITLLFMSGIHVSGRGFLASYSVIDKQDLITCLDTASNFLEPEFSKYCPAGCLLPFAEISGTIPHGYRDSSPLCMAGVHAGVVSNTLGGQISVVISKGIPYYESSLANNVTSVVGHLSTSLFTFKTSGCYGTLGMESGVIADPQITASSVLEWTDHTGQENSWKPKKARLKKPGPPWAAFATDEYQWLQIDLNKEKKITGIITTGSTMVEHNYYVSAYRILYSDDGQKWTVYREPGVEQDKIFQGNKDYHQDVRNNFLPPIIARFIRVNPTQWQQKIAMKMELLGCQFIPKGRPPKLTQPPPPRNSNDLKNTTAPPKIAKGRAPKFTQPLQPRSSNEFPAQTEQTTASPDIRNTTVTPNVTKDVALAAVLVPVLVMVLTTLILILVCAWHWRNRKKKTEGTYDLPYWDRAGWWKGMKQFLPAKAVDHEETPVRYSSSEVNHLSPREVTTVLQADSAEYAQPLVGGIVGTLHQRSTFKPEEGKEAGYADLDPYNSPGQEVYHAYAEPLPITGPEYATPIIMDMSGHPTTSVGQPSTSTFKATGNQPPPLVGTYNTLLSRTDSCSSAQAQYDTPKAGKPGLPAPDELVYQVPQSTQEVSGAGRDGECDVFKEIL
Put plainly: flow cytometry on H460-LNM35 cells, antibody 5 ug/ml, PE anti-mouse IgG. The protocol: The antibodies prepared as described above were assessed for the reactivity to endogenous human CLCP1 by testing their reactivity to cells of high CLCP1-expressing line H460-LNM35 according to the following method. Anti-human CLCP1 antibody was purified from culture supernatant of each hybridoma clone by a conventional affinity purification method using Protein A-Sepharose. The purified antibodies were each diluted to 5 μg/ml, and the reaction intensity to H460-LNM35 was assessed by flow cytometry. In this assay, the anti-CLCP1 monoclonal antibody bound on the cell surface was detected by using a phycoerythrin-labeled anti-mouse IgG antibody. All samples were processed under the same conditions.

Test [2] concerns the target T2, purified partial protein containing the FA58C domain of human CLCP1 (amino acid positions 284 to 526), … (human, UniProt Q96PD2 284-526).
T2 construct: also called partial protein containing FA58C domain; region containing FA58C; not shown: myc-His tag
T2 sequence: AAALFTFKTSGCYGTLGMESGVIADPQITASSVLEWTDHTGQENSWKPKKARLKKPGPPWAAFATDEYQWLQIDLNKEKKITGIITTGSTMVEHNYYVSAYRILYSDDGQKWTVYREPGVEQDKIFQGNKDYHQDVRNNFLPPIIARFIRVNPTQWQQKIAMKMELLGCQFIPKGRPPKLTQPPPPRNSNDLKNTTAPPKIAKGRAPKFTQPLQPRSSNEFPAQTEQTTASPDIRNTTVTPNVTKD
Put plainly: ELISA, hybridoma screening on immunogen-coated plate. The text has this:
After expansion culture in HT medium [RPMI1640, HT-supplement (Invitrogen; 21060-017), Penicillin, and Streptomycin] supplemented with 15% FBS, the cells were cloned into single clones by the limiting dilution method. Eleven hybridoma clones producing anti-human CLCP1 antibody were obtained by the method described above.
(In general: An ELISA detects its analyte on a solid surface through an enzyme-linked reagent.)

Test [3] concerns the target T3, endogenous human CLCP1 in H460-LNM35 cell lysate (human, UniProt Q96PD2 67-775).
T3 construct: Same protein as m1 but solubilised: SDS lysate for Western blot (denatured, reduced) or NP-40 lysate for immunoprecipitation; also called endogenous CLCP1
T3 sequence: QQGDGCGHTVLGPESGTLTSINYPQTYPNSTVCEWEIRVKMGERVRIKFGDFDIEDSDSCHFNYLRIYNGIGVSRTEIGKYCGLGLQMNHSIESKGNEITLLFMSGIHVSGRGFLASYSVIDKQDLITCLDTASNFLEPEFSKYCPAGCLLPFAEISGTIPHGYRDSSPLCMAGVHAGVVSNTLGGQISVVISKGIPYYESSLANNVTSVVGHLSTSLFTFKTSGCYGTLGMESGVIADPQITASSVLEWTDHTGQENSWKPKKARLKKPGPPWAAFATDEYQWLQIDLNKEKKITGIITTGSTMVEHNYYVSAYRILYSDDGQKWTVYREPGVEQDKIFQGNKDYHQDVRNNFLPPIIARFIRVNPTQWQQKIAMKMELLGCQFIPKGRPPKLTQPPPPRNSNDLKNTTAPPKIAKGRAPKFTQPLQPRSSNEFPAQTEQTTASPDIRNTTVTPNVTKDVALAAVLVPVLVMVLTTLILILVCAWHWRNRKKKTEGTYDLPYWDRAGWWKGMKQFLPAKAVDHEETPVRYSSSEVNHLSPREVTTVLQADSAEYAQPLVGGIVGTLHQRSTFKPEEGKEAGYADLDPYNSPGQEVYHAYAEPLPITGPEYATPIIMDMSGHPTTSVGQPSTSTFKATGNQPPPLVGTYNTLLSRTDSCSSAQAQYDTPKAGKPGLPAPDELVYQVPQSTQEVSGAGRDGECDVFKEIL
Briefly: Western blot of H460-LNM35 lysate; almost no signal in CLCP1-knockdown cells. The protocol:
As described in the reference, Nagai H, et al., Oncogene 26: 4025-4031 (2007), a subline that constitutively expresses a CLCP1 siRNA as a short hairpin RNA (shRNA) biosynthesized in cells has been established from the high expressing CLCP1 cell line H460-LNM35. […] Western blotting was carried out using siCLCP1-3 #9 cells (CLCP1 Knockdown in FIG. 8) and H460-LNM35 cells.
2×10⁶ cells of the high expressing CLCP1 cell line H460-LNM35 and siCLCP1-3 #9 line were each suspended in lysis buffer [50 mM Tris (pH 6.8), 5% glycerol, 2% SDS], and the protein concentration was determined using the DC Protein Assay Kit (Bio-Rad). Then, 2-mercaptoethanol was added at 5.3% to the lysates. After heating, 20 μg each of the lysates were subjected to SDS-PAGE, followed by Western blotting with each of the antibodies and an HRP-labeled anti-mouse or anti-rabbit antibody. […] Meanwhile, there was almost no detectable signal in siCLCP1-3 #9 cells.

Test [4] concerns the target T1, human CLCP1 (CUB, LCCL-homology, …). Briefly: flow cytometry on NCI-H460-LNM35 cells. (In flow cytometry, cells or beads pass a laser one at a time.)
The target is the same in test [5]. Briefly: cell-based or functional assay.
Test [6] concerns the target T4, purified protein of the whole extracellular domain of human CLCP1 (amino acid positions 1 to 526), myc-His … (human, UniProt Q96PD2 67-526).
T4 construct: also called whole extracellular domain protein; complete extracellular domain protein; not shown: myc-His tag
T4 sequence: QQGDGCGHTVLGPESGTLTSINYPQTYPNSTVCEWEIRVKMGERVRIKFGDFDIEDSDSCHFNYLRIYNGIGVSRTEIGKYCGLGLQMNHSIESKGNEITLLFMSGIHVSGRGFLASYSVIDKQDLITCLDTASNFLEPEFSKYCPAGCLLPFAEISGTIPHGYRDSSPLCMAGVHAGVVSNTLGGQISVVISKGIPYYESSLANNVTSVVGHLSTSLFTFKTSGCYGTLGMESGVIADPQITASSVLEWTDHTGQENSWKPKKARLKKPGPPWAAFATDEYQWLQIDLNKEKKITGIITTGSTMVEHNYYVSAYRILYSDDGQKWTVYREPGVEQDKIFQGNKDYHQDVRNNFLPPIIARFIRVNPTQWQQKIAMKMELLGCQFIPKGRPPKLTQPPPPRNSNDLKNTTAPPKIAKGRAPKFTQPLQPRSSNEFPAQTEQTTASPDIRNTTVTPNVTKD
Briefly: ELISA on purified extracellular domain protein, culture supernatants. On the procedure: Using the culture supernatants whose IgG concentrations had been determined, the activities of the chimeric antibody, humanized antibody, and serine-substituted humanized antibody were assessed and compared by ELISA for the purified protein of the extracellular domain of CLCP1 described in Example 21. […] Thus, humanized FA19-1 was successfully designed (FIGS. 42 and 43).

Test [7] concerns the target T5, E. coli-produced recombinant protein corresponding to aa 195-aa 453 in SEQ ID NO: 2 (human, UniProt Q96PD2 195-453).
T5 construct: pET28a, BL21, urea-solubilised, TALON-purified; vector-encoded tag residues not described
T5 sequence: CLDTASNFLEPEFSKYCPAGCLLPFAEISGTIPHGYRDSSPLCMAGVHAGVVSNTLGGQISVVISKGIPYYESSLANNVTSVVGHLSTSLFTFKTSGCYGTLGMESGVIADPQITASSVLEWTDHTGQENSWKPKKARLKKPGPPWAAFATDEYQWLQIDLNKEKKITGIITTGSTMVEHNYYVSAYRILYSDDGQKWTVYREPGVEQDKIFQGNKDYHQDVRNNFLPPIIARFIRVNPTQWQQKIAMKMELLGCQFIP
Put plainly: ELISA on purified E. coli fragment. On the procedure:
(§1) Each antibody was assayed by ELISA using the purified proteins prepared described above.

The target in test [8] is T6, E. coli-produced recombinant protein corresponding to aa 195-aa 461 in SEQ ID NO: 2 (human, UniProt Q96PD2 195-461).
T6 construct: pET28a expression system; vector-encoded tag residues not described
T6 sequence: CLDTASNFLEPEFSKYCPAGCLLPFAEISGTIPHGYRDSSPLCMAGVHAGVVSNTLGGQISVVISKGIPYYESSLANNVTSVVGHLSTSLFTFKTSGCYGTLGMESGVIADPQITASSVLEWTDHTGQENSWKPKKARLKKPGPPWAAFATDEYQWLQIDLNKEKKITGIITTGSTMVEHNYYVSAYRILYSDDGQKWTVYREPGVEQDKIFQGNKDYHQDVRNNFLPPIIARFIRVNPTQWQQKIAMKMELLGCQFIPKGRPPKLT
Put plainly: ELISA on purified E. coli fragment. On the procedure: as §1

B1: FA17-9 (antibody, V domains shown)
VH: EVQLQQSGPELVKPGASVKMSCKASGYTFTTYVMHWVKQKPGQGLEWIGYINPYNDGTKYNEKFKGKATLTSDKSSSTAYMELSSLTSEDSAVYYCARGANYYGSSYNWSFDVWGAGTTVTVSS
VL: DIQMTQSPSSLSASLGGKVTITCKASQDINKYIAWYQHKPGEGPRLLIHYTSTLQPGIPSRFSGSGSGRDYSFSISNLEPEDIATYYCLQYDYLWTFGGGTKL
notes: Mouse monoclonal; also called antibody No. FA17-9; Antibody 1
In the case of B1, the binding result in test [1], in test [2] and in test [3] was “binds” each time.

B2: chimeric FA17-9 antibody (antibody, V domains shown)
VH: EVQLQQSGPELVKPGASVKMSCKASGYTFTTYVMHWVKQKPGQGLEWIGYINPYNDGTKYNEKFKGKATLTSDKSSSTAYMELSSLTSEDSAVYYCARGANYYGSSYNWSFDVWGAGTTVTVSS
VL: DIQMTQSPSSLSASLGGKVTITCKASQDINKYIAWYQHKPGEGPRLLIHYTSTLQPGIPSRFSGSGSGRDYSFSISNLEPEDIATYYCLQYDYLWTFGGGTKL
notes: Variable regions of FA17-9 joined to constant regions derived from human IgG1 (LONZA vector)
On to B2, for which, in test [4], the binding result is recorded as “binds”.

B3: chimeric FA19-1 antibody (antibody, V domains shown)
VH: EVQLQQSGPELVKPGASVKMSCKASGYTFTTYIMHWVKQKPGQGLEWIGYINPYNDGTKYNEKFKGEATLTSDKSSSTAYMELSSLTSEDSAVYYCARGANYYGSNYNWSFDVWGAGTTVTVSS
VL: DIQMTQSPSSLSASLGGKVTITCRASQDINKYIAWYQHKPGKGPRLLIHHTCTLQPGIPSRFSGSGSGRDYSFSISNLEPEDIATYYCLQYDYLWTFGGGTKL
Regarding B3, in test [5], the “ADCC, % cytotoxicity (lactate dehydrogenase release), A549 targets, antibody 10 ug/ml, E/T ratio 50, five donors” value was 47.1% and the “ADCC, % cytotoxicity (lactate dehydrogenase release), NCI-H460-LNM35 targets, antibody 10 ug/ml, E/T ratio 50” value was determined as 32.4%.

B4: serine-substituted humanized FA19-1 antibody (FA19RHA and serine-substituted light chain) (antibody, V domains shown)
VH: QVQLVQSGAEVKKPGASVKVSCKASGYTFTTYIMHWVRQAPGQRLEWIGYINPYNDGTKYNEKFKGRVTVTRDTSANTAYMELSSLKSEDTAVYYCARGANYYGSNYNWSFDVWGQGTLVTVSS
VL: DIQMTQSPSSLSASVGDRVTITCRASQDINKYIAWYQQKPGKAPKLLIYHTSTLQPGVPSRFSGSGSGTDFTLTISSLQPEDFATYYCLQYDYLWTFGGGTKVEIK
notes: it is the cysteine of the CDR2 motif HTCTLQP; also called serine-substituted humanized antibody; serine-substituted antibody
Consider B4, for which the binding result in test [6] is on record as “binds”.

B5: 6AA-17-2 (antibody, V domains shown)
VH: EVQLQQSGAELVRPGALVKLSCKASGFNIKDYYMHWVKQRPEQGLEWIGWIDPENDNTIYDPKFQGKASITADTSSNTAYLHLSSLTSEDTAVYYCARAYGYDDYYAMEYWGQGTSVTVSS
VL: NIMMTQSPSSLAVSAGEKVTMSCKSSQSVLYSSNQKNYLAWYQQKPGQSPKLLIYWTSTRESGVPDRFTGSGSGTDFTLTISSVQAEDLAIYYCHQYLYSYTFGGGTKL
notes: Mouse monoclonal raised against the partial protein containing the FA58C domain; also called Antibody 3
Take B5: the binding result in test [7] and in test [8] was “no binding” throughout.
